Results reported in patent publication US20030077693A1.
Blank lines part the entries; values can stand above or below the substance they belong to.

Legend:
[1] = target: human transferrin receptor on cells (human) (UniProt P02786); assay: Pandex cell fluorescence, plate 911, acid washed TRVb-1 cells, OKT9 then GAM FITC
[2] = target: human transferrin receptor on cells (human) (UniProt P02786); assay: Pandex cell fluorescence, plate 919, acid washed TRVb-1 cells, OKT9 then GAM FITC
[3] = target: human transferrin receptor on cells (human) (UniProt P02786); assay: FACS, SK-MEL-28 cells after PI-PLC treatment, staining against untreated stained cells
[4] = target: human transferrin receptor on cells (human) (UniProt P02786); assay: FACS, SK-MEL-28 cells after Pronase treatment, staining against untreated stained cells
[5] = target: human transferrin receptor on cells (human) (UniProt P02786); assay: Pandex cell fluorescence, plate 911, untreated TRVb-1 cells, OKT9 then GAM FITC
[6] = target: human transferrin receptor on cells (human) (UniProt P02786); assay: Pandex cell fluorescence, plate 919, untreated TRVb-1 cells, OKT9 then GAM FITC
[7] = target: p97 (melanotransferrin), GPI-anchored, on the cell surface (human) (UniProt P08582); assay: FACS, Sf9 cells infected with p97 B-1-1, pre-incubated with PI-PLC, L235 + GAM IgG-FITC
Sequence of UniProt P08582 (P08582 20-709): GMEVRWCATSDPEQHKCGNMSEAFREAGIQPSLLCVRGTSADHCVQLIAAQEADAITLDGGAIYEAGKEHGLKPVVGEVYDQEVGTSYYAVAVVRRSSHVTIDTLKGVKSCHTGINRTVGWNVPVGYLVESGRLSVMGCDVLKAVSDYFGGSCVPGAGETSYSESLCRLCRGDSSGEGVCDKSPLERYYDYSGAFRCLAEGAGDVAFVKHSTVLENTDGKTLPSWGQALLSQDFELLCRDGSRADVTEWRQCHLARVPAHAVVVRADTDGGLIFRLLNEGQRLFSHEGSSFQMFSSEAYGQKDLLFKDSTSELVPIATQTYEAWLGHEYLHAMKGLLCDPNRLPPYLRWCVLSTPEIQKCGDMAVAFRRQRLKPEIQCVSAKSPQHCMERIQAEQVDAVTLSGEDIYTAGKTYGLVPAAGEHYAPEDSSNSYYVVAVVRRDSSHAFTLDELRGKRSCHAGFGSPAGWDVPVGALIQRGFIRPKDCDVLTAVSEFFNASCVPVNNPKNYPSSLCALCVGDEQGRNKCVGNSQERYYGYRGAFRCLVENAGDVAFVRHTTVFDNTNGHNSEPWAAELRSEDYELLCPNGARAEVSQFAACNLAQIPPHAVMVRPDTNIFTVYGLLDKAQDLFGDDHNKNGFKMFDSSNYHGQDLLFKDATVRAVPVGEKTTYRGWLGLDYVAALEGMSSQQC

[8] = target: p97 (melanotransferrin), GPI-anchored, on the cell surface (human) (UniProt P08582); assay: FACS, Sf9 cells infected with p97 recombinant virus p97 B-2-1, L235 + GAM IgG-FITC
[9] = target: p97 (melanotransferrin), GPI-anchored, on the cell surface (human) (UniProt P08582); assay: FACS, p97aWTBc3 cells after PI-PLC treatment, staining against untreated stained cells
[10] = target: p97 (melanotransferrin), GPI-anchored, on the cell surface (human) (UniProt P08582); assay: FACS, SK-MEL-28 cells, L235 hybridoma supernatant + GAM IgG-FITC
[11] = target: transferrin added to TRVb and TRVb-1 cells (30 µg/mL, Example 19) (UniProt P02787); assay: Pandex cell fluorescence, plate 922 (FITC Abs pre-incubated with GAM FITC), untreated TRVb-1 cells + Tf only, stained with L235 (specificity control)
Sequence of UniProt P02787 (P02787 20-698 limits assumed): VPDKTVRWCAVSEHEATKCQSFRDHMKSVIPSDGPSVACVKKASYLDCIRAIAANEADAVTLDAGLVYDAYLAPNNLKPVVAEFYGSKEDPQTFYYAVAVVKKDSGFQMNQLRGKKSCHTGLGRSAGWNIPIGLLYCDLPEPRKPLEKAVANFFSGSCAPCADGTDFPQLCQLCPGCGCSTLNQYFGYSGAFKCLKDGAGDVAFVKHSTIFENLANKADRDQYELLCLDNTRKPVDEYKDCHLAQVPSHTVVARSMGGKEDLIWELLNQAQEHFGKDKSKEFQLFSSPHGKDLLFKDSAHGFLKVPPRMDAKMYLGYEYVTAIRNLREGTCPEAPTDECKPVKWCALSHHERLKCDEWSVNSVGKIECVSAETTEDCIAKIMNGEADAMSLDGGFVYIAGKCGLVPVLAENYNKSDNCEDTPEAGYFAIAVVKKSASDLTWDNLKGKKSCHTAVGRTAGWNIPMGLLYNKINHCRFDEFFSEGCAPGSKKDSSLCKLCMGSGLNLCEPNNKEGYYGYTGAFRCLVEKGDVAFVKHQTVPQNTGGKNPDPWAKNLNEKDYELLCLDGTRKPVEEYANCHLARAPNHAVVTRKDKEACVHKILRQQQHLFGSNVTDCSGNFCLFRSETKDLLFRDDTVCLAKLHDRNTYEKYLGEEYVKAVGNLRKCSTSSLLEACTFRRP

[12] = target: transferrin added to TRVb and TRVb-1 cells (30 µg/mL, Example 19) (UniProt P02787); assay: Pandex cell fluorescence, plate 919, untreated TRVb-1 cells + Tf only, stained with L235 (specificity control)
[13] = target: p97 (melanotransferrin), GPI-anchored, on the cell surface (human) (UniProt P08582); assay: FACS, SK-MEL-28 cells after PI-PLC treatment, staining against untreated stained cells
[14] = target: transferrin added to TRVb and TRVb-1 cells (30 µg/mL, Example 19) (UniProt P02787); assay: Pandex cell fluorescence, plate 925 (unlabelled Abs then GAM FITC), untreated TRVb-1 cells + Tf only, stained with L235 (specificity control)
[15] = target: p97 (melanotransferrin), GPI-anchored, on the cell surface (human) (UniProt P08582); assay: cell-based or functional assay
[16] = target: transferrin added to TRVb and TRVb-1 cells (30 µg/mL, Example 19) (UniProt P02787); assay: Pandex cell fluorescence, plate 919, acid washed TRVb-1 cells + Tf only, stained with L235 (specificity control)
[17] = target: p97 (melanotransferrin), GPI-anchored, on the cell surface (human) (UniProt P08582); assay: FACS, Sf9 cells infected with p97 recombinant virus p97 B-1-1, L235 + GAM IgG-FITC
[18] = target: transferrin added to TRVb and TRVb-1 cells (30 µg/mL, Example 19) (UniProt P02787); assay: Pandex cell fluorescence, plate 922 (FITC Abs pre-incubated with GAM FITC), acid washed TRVb-1 cells + Tf only, stained with L235 (specificity control)
[19] = target: transferrin added to TRVb and TRVb-1 cells (30 µg/mL, Example 19) (UniProt P02787); assay: Pandex cell fluorescence, plate 925 (unlabelled Abs then GAM FITC), acid washed TRVb-1 cells + Tf only, stained with L235 (specificity control)
[20] = target: p97 (melanotransferrin), GPI-anchored, on the cell surface (human) (UniProt P08582); assay: FACS, p97aWTBc7 cells after PI-PLC treatment, staining against untreated stained cells
[21] = target: p97 (melanotransferrin), GPI-anchored, on the cell surface (human) (UniProt P08582); assay: FACS, SK-MEL-28 cells after Pronase treatment, staining against untreated stained cells
[22] = target: p97 (melanotransferrin), GPI-anchored, on the cell surface (human) (UniProt P08582); assay: FACS, SK-MEL-28 cells pre-incubated with PI-PLC (removes p97), L235 + GAM IgG-FITC
[23] = target: p97 (melanotransferrin), GPI-anchored, on the cell surface (human) (UniProt P08582); assay: FACS, Sf9 cells infected with p97 B-2-1, pre-incubated with PI-PLC, L235 + GAM IgG-FITC
[24] = target: Thy-1 on EL-4 mouse lymphoma cells (mouse) (UniProt P01831); assay: FACS, EL-4 cells after PI-PLC treatment, staining against untreated stained cells
Sequence of UniProt P01831 (P01831 20-131): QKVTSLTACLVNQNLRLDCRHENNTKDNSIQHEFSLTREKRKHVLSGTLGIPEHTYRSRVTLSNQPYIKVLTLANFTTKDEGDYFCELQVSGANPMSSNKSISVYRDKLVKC

[25] = target: Thy-1 on EL-4 mouse lymphoma cells (mouse) (UniProt P01831); assay: FACS, EL-4 cells after Pronase treatment, staining against untreated stained cells

Sequence of UniProt P02786 (P02786 whole entry): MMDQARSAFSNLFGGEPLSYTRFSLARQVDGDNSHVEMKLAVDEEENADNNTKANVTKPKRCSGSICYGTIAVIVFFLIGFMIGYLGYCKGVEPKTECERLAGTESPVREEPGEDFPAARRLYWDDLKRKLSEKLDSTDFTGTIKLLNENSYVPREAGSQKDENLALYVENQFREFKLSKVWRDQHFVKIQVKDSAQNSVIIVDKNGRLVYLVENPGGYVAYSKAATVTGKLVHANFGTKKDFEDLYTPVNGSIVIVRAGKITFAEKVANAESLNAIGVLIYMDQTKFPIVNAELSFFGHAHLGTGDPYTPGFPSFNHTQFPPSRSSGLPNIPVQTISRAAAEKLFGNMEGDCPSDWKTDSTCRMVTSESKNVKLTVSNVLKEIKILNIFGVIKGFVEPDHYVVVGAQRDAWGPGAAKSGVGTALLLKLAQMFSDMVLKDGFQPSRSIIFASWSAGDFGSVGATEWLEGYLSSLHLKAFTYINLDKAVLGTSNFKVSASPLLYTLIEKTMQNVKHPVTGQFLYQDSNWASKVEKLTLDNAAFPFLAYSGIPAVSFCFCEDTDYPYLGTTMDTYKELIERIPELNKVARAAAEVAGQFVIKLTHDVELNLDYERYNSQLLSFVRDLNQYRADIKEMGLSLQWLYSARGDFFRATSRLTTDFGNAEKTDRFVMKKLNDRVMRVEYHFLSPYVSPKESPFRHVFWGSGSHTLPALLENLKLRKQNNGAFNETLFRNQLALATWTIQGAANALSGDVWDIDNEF

- fluorescence [1]: 7140
- fluorescence less control [1]: 5060
- fluorescence [2]: 12500
- fluorescence less control [2]: 10400
- Fluorescene Intensity (% of Control) [3]: 120 % of Control
- Fluorescene Intensity (% of Control) [4]: 15.9 % of Control
- fluorescence [5]: 4760
- fluorescence less control [5]: 3250
- fluorescence [6]: 13600
- fluorescence less control [6]: 11500
Substance: OKT9 anti-human transferrin receptor mouse monoclonal antibody

- FLUORESCENCE-converted linear value [7]: 5.74
- FLUORESCENCE-converted linear value [8]: 97.4
- Fluorescene Intensity (% of Control) [9]: 6.8 % of Control
- FLUORESCENCE-converted linear value [10]: 128
- fluorescence [11]: 7440
- fluorescence less control (TRVb) [11]: 0
- fluorescence [12]: 5330
- fluorescence less control (TRVb) [12]: 0
- Fluorescene Intensity (% of Control) [13]: 10.8 % of Control
- fluorescence [14]: 2520
- fluorescence less control (TRVb) [14]: 237
- internalization of Fe from 59Fe-citrate by p97TRVb cells [15]: 31%
- fluorescence [16]: 5320
- fluorescence less control (TRVb) [16]: 1120
- FLUORESCENCE-converted linear value [17]: 112
- fluorescence [18]: 6220
- fluorescence less control (TRVb) [18]: 107
- fluorescence [19]: 2710
- fluorescence less control (TRVb) [19]: 758
- Fluorescene Intensity (% of Control) [20]: 7.5 % of Control
- Fluorescene Intensity (% of Control) [21]: 82.6 % of Control
- FLUORESCENCE-converted linear value [22]: 4.52
- FLUORESCENCE-converted linear value [23]: 6.85
Substance: L235 anti-p97 mouse monoclonal antibody

- Fluorescene Intensity (% of Control) [24]: 32.5 % of Control
- Fluorescene Intensity (% of Control) [25]: 136 % of Control
Substance: T24/37.1 MAb (anti-Thy-1) (antibody)
